Assay results published in KR20240052776A (dated 2024).

Key:
Assay in all cases: flow cytometry, cell-based binding assay: yeast-displayed scFv with biotinylated MOG protein, streptavidin detection, anti-myc co-staining
[1] = target: T1, biotinylated mouse MOG-His (Uniprot Q61885), RND Systems (mouse, UniProt Q61885 29-156, limits assumed, biotinylated (site not stated))
T1 construct: A bought protein (RND Systems); also called 마우스 MOG-His; not shown: His tag
T1 sequence (looked up): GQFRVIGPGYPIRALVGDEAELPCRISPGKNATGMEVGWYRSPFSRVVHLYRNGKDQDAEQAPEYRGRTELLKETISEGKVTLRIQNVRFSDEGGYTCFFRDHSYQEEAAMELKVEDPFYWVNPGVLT

[2] = target: T2, biotinylated human MOG-His (Uniprot Q16653), RND Systems (human, UniProt Q16653 30-154, biotinylated (site not stated))
T2 construct: A bought protein (RND Systems); also called 인간 MOG-His; not shown: His tag
T2 sequence (looked up): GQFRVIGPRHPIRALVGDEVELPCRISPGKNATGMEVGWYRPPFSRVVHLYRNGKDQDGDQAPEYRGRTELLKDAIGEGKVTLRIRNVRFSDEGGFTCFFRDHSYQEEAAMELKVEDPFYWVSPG

[3] = target: T3, biotinylated cynomolgus monkey MOG-FC protein (Q9BGS7), expressed in mammalian cells (cynomolgus monkey, UniProt Q9BGS7 30-154, limits assumed, biotinylated (site not stated))
T3 construct: also called cynomolgus MOG-Fc; 사이노몰거스 원숭이 MOG-FC; not shown: Fc part
T3 sequence (looked up): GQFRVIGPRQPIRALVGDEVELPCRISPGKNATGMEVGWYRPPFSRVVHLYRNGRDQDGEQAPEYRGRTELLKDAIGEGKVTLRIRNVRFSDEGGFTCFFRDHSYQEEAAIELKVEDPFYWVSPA

Measured: binding result

B1: anti-MOG scFv of the invention, displayed on yeast cells (MOG-CAR 발현 효모 세포) (scFv, V domains shown)
VH: QVQLVQSGAEVKKPGSSVKVSCKASGGTFSSYAFSWVRQAPGQGLEWMGRIVPVVGTPNYAQKFQGRVTITADESTSTAYMELSSLRSEDTAVYYCARERLYAGYYFDHWGQGTLVTVSS
VL: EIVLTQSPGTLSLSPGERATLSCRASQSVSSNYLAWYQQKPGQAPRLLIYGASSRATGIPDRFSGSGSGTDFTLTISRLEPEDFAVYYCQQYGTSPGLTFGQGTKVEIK
notes: also called MOG-CAR expressing yeast cells
binds: [1] | [2] | [3]
